Laboratory results from US7592309B2, “Method of using a peptide having analgesic and antitumor activity from scorpion” (priority 2001, dated 2009).

B1: Example 2: peptide having analgesic and antitumor activity purified from homogenized scorpion by the processes of Example 1; SEQ ID NO: 1 (protein)
chain: VRDGYIADDKNCAYFCGRNAYCDDECKKNGAESGYCQWAGVYGNACWCYKLPDKVPIRVPGKCNGG
modifications: Scorpion

Columns and labels:
Type in all cases: in vivo
[1] = test system: ehrlich ascites carcinoma; assay: mouse ehrlich ascites carcinoma model, rate of life prolonging
Method: (§1) In mouse experimental tumor model, such as ehrlich ascites carcinoma and S180 entity tumor, the peptide derived from the scorpion or partial fragment, derivative or analogue thereof having analgesic and antitumor activity obtained in example 1,2 and 6 was injected subcutaneously in a dose of 0.1 mg/kg weight to 16.0 mg/kg weight for continuous seven days. […] For example, the peptide of the SDS-PAGE single band obtained in Example 1 was administrated at the dose of 0.639 mg/kg weight. […] The peptide derived from the scorpion or partial fragment, derivative or analogue thereof having analgesic and antitumor activity obtained in example 1,2 and 6 was administrated by stomach infusion in a dose of 0.1 mg/kg weight to 16.0 mg/kg weight for continuous ten days.

S180 sarcoma solid tumor = assay: mouse S180 sarcoma solid tumor model, inhibitory rate of tumor weight; conditions: S180, dose 60.0 mg/kg weight (positive control)
Method: as §1

mouse heat plate model = mouse heat plate model (pain threshold); conditions: 0.6 mg/kg weight intravenously
Method: (§2) The above samples were administrated by stomach infusion in a dose of 0.1 mg/kg weight to 16.0 mg/kg weight. […] In the mouse heat plate model, the above samples were administrated by intravenous injection in a dose of 0.1 mg/kg weight to 16.0 mg/kg weight. […] For example, the peptide of SDS-PAGE single band obtained in example 1 and 2 were injected intravenously at 0.6 mg/kg weight.

[2] = test system: writhing response of mouse (acetic acid writhing model); conditions: administered by stomach infusion
Method: as §2

Molecule	rate of life prolonging ([1]; dose 60.0 mg/kg weight, subcutaneous injection (positive control))	inhibitory rate of tumor weight (S180 sarcoma solid tumor)	pain threshold raised in a rate of (mouse heat plate model; at 5 min)	pain threshold raised in a rate of (mouse heat plate model; at 15 min)	pain threshold raised in a rate of (mouse heat plate model; at 25 min)	pain threshold raised in a rate of (mouse heat plate model; at 35 min)	pain threshold raised in a rate of (mouse heat plate model; at 45 min)	pain threshold raised in a rate of (mouse heat plate model; at 60 min)	pain threshold raised in a rate of (mouse heat plate model; at 90 min)	ED50 (median effective dose) [2]	rate of life prolonging ([1]; stomach infusion, dose 0.213 mg/kg weight, ten days)	rate of life prolonging ([1]; stomach infusion, dose 0.639 mg/kg weight, ten days)
O=P1(N(CCCl)CCCl)NCCCO1 (stereo not drawn) [cyclophosphamide, reference compound]	15.6%	50.5%	–	–	–	–	–	–	–	–	–	–
B1	–	–	16.5%	145.7%	219.1%	219.1%	177.6%	32.4%	14.9%	2.86 mg/kg weight	16.8%	31.5%
